Results from the supplement of paper PMC9732359.
± gives the uncertainty stated by the source.

Assay: protein stability index of a GFP-peptide fusion (yeast GPS) (PSI 1-4); higher = more stable; sorted into four equal gates, so the index is relative within each strain
Method in brief: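 Tiled yeast protein peptides of 17 residues were each joined downstream of GFP, on plasmids that also express Cherry. The pooled library was maintained in yeast, and mid-log cultures in leucine-free medium were sorted into four equal gates on the GFP/Cherry ratio. Plasmids from every gate were amplified by PCR and sequenced on Illumina, with barcodes linking reads to strains. The protein stability index of a peptide is its gate-number-weighted read frequency summed over the gates.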

Sequence | protein stability index (doa10∆) | protein stability index (pdr5∆) | protein stability index (san1∆) | protein stability index (ubr1∆)
SLSNPNSTATMQHNPLA [PGD1] | 2.86 ± 0.04 | 3.1 ± 0.039 | 2.96 ± 0.034 | 2.967 ± 0.029
SLTAEAMTAAEHGLHAP [CYT1] | 2.82 ± 0.091 | 3.25 ± 0.073 | 2.94 ± 0.057 | 3.1 ± 0.045
SLTPTQSDSAKVEIKKV [PRP28] | 3.01 ± 0.12 | 3.39 ± 0.069 | 2.92 ± 0.093 | 3.1 ± 0.06
SLTTVWAEHLSDEVKRR [RPL3] | 2.87 ± 0.13 | 2.85 ± 0.18 | – | 3 ± 0.18
SLVNSYIIDSPQPSSIN [COB] | 1.51 ± 0.085 | 1.59 ± 0.08 | 1.64 ± 0.15 | 1.32 ± 0.081
SLYPPPPPYVKFFTQSN [MED7] | 1.97 ± 0.043 | 2.17 ± 0.048 | 2.16 ± 0.072 | 2.35 ± 0.031
SMFSGLDSTGFDSTAFN [MED2] | 3.05 ± 0.044 | 3.17 ± 0.042 | 3.19 ± 0.034 | 3.104 ± 0.03
SMINNSNQAVGQTWNFP [SRB8] | 2.8 ± 0.17 | 3.01 ± 0.16 | 3.15 ± 0.13 | 2.74 ± 0.12
SMKANTSTNPNGLGTSH [ARP7] | 3.22 ± 0.093 | 3.41 ± 0.098 | 2.95 ± 0.078 | 3.27 ± 0.075
SNDFEEGSTIRYLAVTL [YMR129W/POM152] | 2.06 ± 0.05 | 2.28 ± 0.049 | 2.12 ± 0.062 | 2.26 ± 0.053
SNDKVVEWINPSRRERR [ISW2] | – | – | – | 3.34 ± 0.15
SNDTTAFNDSCVNLSLF [SRB8] | 3.07 ± 0.065 | 2.92 ± 0.069 | 3.13 ± 0.06 | 2.34 ± 0.035
SNFTSIIGPNGSGKSNM [SMC1] | 3.33 ± 0.13 | 3.04 ± 0.15 | 3.37 ± 0.12 | 3.46 ± 0.093
SNIELAFSSVEHIIRDV [COB] | 3 ± 0.087 | 2.78 ± 0.1 | 2.79 ± 0.079 | 2.73 ± 0.11
SNIPNLLRNLESKMRQQ [YDL088C/ASM4] | 3.15 ± 0.11 | 2.84 ± 0.086 | 2.97 ± 0.12 | 3.07 ± 0.062
SNIQRNVLFLRLFNNVK [SRP72] | 2.24 ± 0.059 | 2.23 ± 0.054 | 1.49 ± 0.076 | 1.83 ± 0.05
SNTNDNISIITLELESF [RGR1] | 2.54 ± 0.075 | 2.39 ± 0.081 | 2.25 ± 0.098 | 2.32 ± 0.11
SNTTTQIQFTPLIKKIK [SMC3] | 2.2 ± 0.088 | 2.46 ± 0.045 | 2.71 ± 0.095 | 2.37 ± 0.07
SNVNSDIYFKLKKLEKE [RPT3] | 3.22 ± 0.09 | 2.73 ± 0.09 | 2.93 ± 0.086 | 3.03 ± 0.072
SNYAASNSMDRSSSASN [SWI1] | 2.79 ± 0.14 | 2.7 ± 0.089 | 2.88 ± 0.07 | 2.84 ± 0.093
SPELKADLRPLQIKSIR [RPS7B] | 2.42 ± 0.14 | 2.9 ± 0.13 | 2.67 ± 0.13 | 2.98 ± 0.091
SPFGAYGEAPTSPGFGV [RPO21] | 2.87 ± 0.086 | 3.12 ± 0.052 | 2.98 ± 0.076 | 3.17 ± 0.034
SPIFEVLSDDAKKLSSF [ARP9] | 2.84 ± 0.062 | 3.19 ± 0.11 | 2.88 ± 0.058 | 3 ± 0.069
SPLQKEEALNFDISMAD [SSN2] | 3.23 ± 0.058 | 3.07 ± 0.057 | 3.18 ± 0.07 | 3.25 ± 0.058
SPLYMDTETFDTVNSAL [YML103C/NUP188] | 3.11 ± 0.14 | 3.27 ± 0.14 | 3.18 ± 0.074 | 3.21 ± 0.058
SPMGAQPSYNSAIIENA [GAL11] | 2.88 ± 0.074 | 2.96 ± 0.071 | 2.5 ± 0.1 | 2.73 ± 0.045
SPNFKNYLKYLEYWCNP [SOH1] | 2.32 ± 0.055 | 2.34 ± 0.056 | 1.88 ± 0.053 | 2.71 ± 0.06

Sequence | protein stability index (doa10∆) | protein stability index (pdr5∆) | protein stability index (san1∆) | protein stability index (ubr1∆)
SPRFNVKIGDIEKWTAN [RPS22A] | 3.06 ± 0.082 | 3.23 ± 0.075 | 2.85 ± 0.065 | 3.34 ± 0.073
SPTINRANVYVGFLVQL [PRP8] | 2.6 ± 0.065 | 1.89 ± 0.066 | 1.98 ± 0.1 | 2.1 ± 0.063
SPYGNLQNDLIHKIQND [RPN5] | 2.02 ± 0.083 | 2.67 ± 0.053 | 2.82 ± 0.07 | 2.56 ± 0.058
SQFCYVSDDESNGEVLE [RPN14] | 3.41 ± 0.22 | – | – | 3.09 ± 0.1
SQIFDQLKDMQTIEMIT [SRB8] | 2.78 ± 0.058 | 3.11 ± 0.049 | 2.72 ± 0.049 | 2.85 ± 0.043
SQKTKTIQSDLNLSLHK [SMC2] | 2.35 ± 0.056 | 2.3 ± 0.043 | 2.19 ± 0.071 | 2.67 ± 0.03
SQLDLFLRTMKLTSEET [GRR1] | 2.77 ± 0.055 | 2.7 ± 0.052 | 3 ± 0.06 | 3.09 ± 0.043
SQLNIQLSQDEHSQVEQ [SRP72] | 3.17 ± 0.06 | 3.07 ± 0.047 | 3.16 ± 0.048 | 3.05 ± 0.066
SQLPITPMTRISELPPQ [YGL172W/NUP49] | 2.35 ± 0.057 | 2.67 ± 0.047 | 2.13 ± 0.051 | 2.71 ± 0.041
SQPNNTPSFSFGKTTAN [YLR335W/NUP2] | 2.76 ± 0.054 | 2.84 ± 0.051 | 2.78 ± 0.058 | 2.87 ± 0.048
SQSQQKLLKEKVKLFHG [MED2] | 3.1 ± 0.091 | 3.1 ± 0.093 | 3.07 ± 0.057 | 2.81 ± 0.08
SQVDPITLFVLVSVVEA [FAS2] | 1.44 ± 0.045 | 2.03 ± 0.069 | 2.48 ± 0.077 | 1.45 ± 0.072
SQVFGVARIYASFNDTF [RPS14A] | 2.05 ± 0.062 | 1.81 ± 0.045 | 2.11 ± 0.073 | 2.38 ± 0.056
SQVLDLAKKIAPGKVEL [SMC2] | – | 3.28 ± 0.19 | – | 2.84 ± 0.2
SREAVRHFGMGPHKGKA [RPL18A] | 3.22 ± 0.19 | 2.8 ± 0.12 | 3.04 ± 0.098 | 3.66 ± 0.16
SRGFEVMYNGHTGKKLM [RPB2] | 1.97 ± 0.12 | 3.33 ± 0.25 | 2.71 ± 0.13 | –
SRKETSRTATWLKNKFA [BRR2] | 1.37 ± 0.057 | 1.29 ± 0.041 | 1.67 ± 0.11 | 1.49 ± 0.063
SRLKALNLQFKAKVDDL [YLR335W/NUP2] | 3.12 ± 0.075 | 3.2 ± 0.091 | 3.05 ± 0.1 | 3.11 ± 0.069
SRSTDNFHNSKKRMNSN [RRI1] | 2.11 ± 0.06 | 2.4 ± 0.081 | 2.26 ± 0.1 | 2.61 ± 0.081
SRTLILSILNEIKKVTQ [SIN4] | 3.05 ± 0.12 | 2.56 ± 0.15 | 2.27 ± 0.11 | 2.82 ± 0.084
SRYEPKVFDCGDNIVMS [PRE7] | 2.49 ± 0.12 | 2.78 ± 0.11 | 2.89 ± 0.11 | 2.06 ± 0.23
SSDAFEVDVCDKCGLMG [RET1] | 2.38 ± 0.18 | 2.59 ± 0.11 | 2.33 ± 0.19 | 2.12 ± 0.11
SSDGQLKKFRESLVHSA [BRR2] | 3.41 ± 0.15 | 3.25 ± 0.23 | 3.22 ± 0.16 | 3.33 ± 0.13
SSEYETINISLSFSWAI [NUT1] | 1.51 ± 0.1 | 1.64 ± 0.16 | 2.21 ± 0.13 | 2.4 ± 0.13
SSFEKFNDSQAIVCYIL [SRP72] | 2.43 ± 0.046 | 2.53 ± 0.047 | 2.42 ± 0.042 | 2.63 ± 0.031
SSHAKGIVLEKLGIESK [RPS23A] | 3.02 ± 0.15 | 2.88 ± 0.13 | 2.67 ± 0.095 | 3.17 ± 0.17
SSIDRGFGRCETRRKTT [RET1] | 2.41 ± 0.071 | 2.38 ± 0.12 | 2.21 ± 0.13 | 2.52 ± 0.05

Sequence | protein stability index (doa10∆) | protein stability index (pdr5∆) | protein stability index (san1∆) | protein stability index (ubr1∆)
SSIENNINNNINSTKNG [MED2] | 2.85 ± 0.081 | 3.11 ± 0.093 | 2.88 ± 0.084 | 3.17 ± 0.063
SSKKVFSSNLSYANHLE [YOR098C/NUP1] | 2.31 ± 0.067 | 2.31 ± 0.064 | 2.1 ± 0.078 | 2.48 ± 0.047
SSKLVDVYTLPSYVHFK [YML103C/NUP188] | 1.82 ± 0.047 | 1.61 ± 0.046 | 1.69 ± 0.061 | 1.46 ± 0.036
SSKPAFNLISNAGTEKE [YLR335W/NUP2] | 3.13 ± 0.094 | 2.95 ± 0.098 | 3.13 ± 0.065 | 3.07 ± 0.061
SSLKESSPDTMKLTDLL [SNF12] | 3.09 ± 0.088 | 3.08 ± 0.083 | 2.71 ± 0.098 | 3.1 ± 0.076
SSLMNGLGYVFEFQYLT [SRB5] | 2.25 ± 0.095 | 1.83 ± 0.085 | 1.64 ± 0.084 | 3.19 ± 0.073
SSNILEDILYYSTCPSE [SRB8] | 2.4 ± 0.1 | 2.4 ± 0.075 | 2.77 ± 0.059 | 2.54 ± 0.062
SSQNNSELAPIEEHPTV [IRR1] | – | – | – | 3.14 ± 0.17
SSSIKSTGPTGAVSLNP [RRP4] | 3.24 ± 0.035 | 3.37 ± 0.048 | 3.231 ± 0.027 | 3.151 ± 0.031
SSSKQQSRLFINELVLE [SMC4] | 3.02 ± 0.14 | 2.95 ± 0.1 | 2.58 ± 0.16 | 3.05 ± 0.085
SSSKSMINDENYIINDI [SRB8] | 2.92 ± 0.064 | 2.82 ± 0.052 | 2.63 ± 0.074 | 2.83 ± 0.04
SSSNGGGSAKPSLKFKP [RPC53] | 2.61 ± 0.13 | 3 ± 0.14 | 2.74 ± 0.093 | 3.34 ± 0.091
SSSSDIIVPDLIELKSD [YML103C/NUP188] | 2.71 ± 0.085 | 3.15 ± 0.059 | 2.67 ± 0.13 | 2.7 ± 0.07
SSSTQNVFVILMDKCLP [DIS3] | 1.97 ± 0.085 | 1.96 ± 0.053 | 2.13 ± 0.052 | 1.95 ± 0.043
SSTPKFTKKPVTPNDKI [SIR4] | 2.96 ± 0.11 | 2.89 ± 0.07 | 2.96 ± 0.062 | 3.08 ± 0.054
STAFVPTIEYVQCPTVI [ARP9] | 1.68 ± 0.065 | 1.97 ± 0.048 | 1.71 ± 0.08 | 1.88 ± 0.052
STCIVSLIRNNLHAEGW [ECM29] | 1.21 ± 0.052 | 1.47 ± 0.068 | 2 ± 0.077 | 1.64 ± 0.067
STLTLSDSEDSDAKEQH [ESC2] | – | – | – | 1.06 ± 0.13
STRASTVPNLPTTMVTN [ISW2] | 1.92 ± 0.055 | 2.38 ± 0.056 | 2.35 ± 0.058 | 2.38 ± 0.047
STTAALQSISSLTISLY [RPN7] | 1.74 ± 0.041 | 1.82 ± 0.035 | 1.95 ± 0.049 | 2.12 ± 0.047
STTTSLHVPNLQPPKTS [SMC4] | 2.13 ± 0.036 | 2.33 ± 0.033 | 2.1 ± 0.046 | 1.93 ± 0.027
STVAKFLARVIKEKFDE [IRR1] | 2.86 ± 0.1 | 2.33 ± 0.082 | 3.36 ± 0.22 | 2.16 ± 0.09
STYLPKLISAFDDLEVE [RRP42] | 2.63 ± 0.051 | 2.75 ± 0.042 | 2.58 ± 0.05 | 2.74 ± 0.032
SVILSVISMFVLPIFTT [YML031W/NDC1] | 1.29 ± 0.045 | 1.5 ± 0.059 | 1.3 ± 0.092 | 1.93 ± 0.043
SVINVSAQRDRRYRKRV [RPS17A] | 2.34 ± 0.06 | 2.06 ± 0.063 | 1.71 ± 0.1 | 2.06 ± 0.08
